Experimental data published in patent US6703362 (CYTOGEN, dated 2004).
Like-named read-outs stand apart in the source and are kept apart here.

Assays:
[1] = molecular target: T1, HPT1 receptor domain (human intestinal peptide-associated transporter HPT1, amino acid residues 29-273), … (human, UniProt Q12864 29-273); assay: phage ELISA, OD on HPT1 over OD on BSA
T1 construct: purified under denaturing conditions; also called recombinant HPT1; not shown: poly-histidine tag (pET vector) at the NH2-terminal end
T1 sequence: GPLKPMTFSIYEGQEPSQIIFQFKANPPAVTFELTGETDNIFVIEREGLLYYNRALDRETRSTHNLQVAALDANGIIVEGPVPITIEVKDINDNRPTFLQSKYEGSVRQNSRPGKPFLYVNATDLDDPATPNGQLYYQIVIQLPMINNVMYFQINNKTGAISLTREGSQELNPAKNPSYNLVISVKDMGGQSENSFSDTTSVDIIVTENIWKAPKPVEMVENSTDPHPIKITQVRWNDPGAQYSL
Method: (§1) 6.6. Receptor ELISA Procedure 96 well plates were coated overnight with GIT receptor, BSA and, optionally, IDE (insulin degrading enzyme, an irrelevant His-fusion protein)or hTF. The plates were blocked for one hour with 0.5% BSA-PBS. After clarification, the amplified phage were diluted 1:100 in […] plus 0.05% Tween 20 in PBS and added to the plates. Following incubation of the plates on a rotator for 1 to 2 hours, the plates were washed 5 times with 1% BSA plus 0.05% Tween 20 in PBS. […] After the plates were washed 5 times, as described above, TMB substrate was added to the wells. The plates were read at 650 nm absorbance.

[2] = molecular target: T1, HPT1 receptor domain (human intestinal …); assay: phage ELISA, plate coated with HPT1 domain
Method: as §1

[3] = molecular target: T2, D2H receptor domain (human D2H transporter, amino acid residues 387-685), His-tag fusion protein (human, UniProt Q07837 387-685); assay: phage ELISA, OD on D2H over OD on BSA
T2 construct: purified under denaturing conditions; also called recombinant D2H; not shown: poly-histidine tag (pET vector) at the NH2-terminal end
T2 sequence: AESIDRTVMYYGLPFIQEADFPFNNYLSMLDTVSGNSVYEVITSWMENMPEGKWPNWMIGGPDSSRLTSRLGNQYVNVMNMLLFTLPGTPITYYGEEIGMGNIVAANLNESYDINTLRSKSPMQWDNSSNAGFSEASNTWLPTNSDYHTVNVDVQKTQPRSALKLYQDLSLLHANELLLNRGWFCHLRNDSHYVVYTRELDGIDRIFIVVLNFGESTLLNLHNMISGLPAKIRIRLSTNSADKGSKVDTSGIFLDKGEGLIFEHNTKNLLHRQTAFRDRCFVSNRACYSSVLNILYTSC
Method: as §1
(§2) Binding to fixed Caco-2 cells, D2H and BSA was examined.

[4] = molecular target: T2, D2H receptor domain (human D2H …); assay: phage ELISA, plate coated with D2H domain
Method: as §1, §2

[5] = molecular target: T2, D2H receptor domain (human D2H …); assay: phage ELISA, OD on D2H over OD on BSA; remark: listed apart in the source
Method: as §1

[6] = molecular target: T2, D2H receptor domain (human D2H …); assay: phage ELISA, plate coated with D2H domain; remark: listed apart in the source
Method: as §1

[7] = molecular target: T3, hPEPT1 receptor domain (human PEPT1, amino acid residues 391-571), His-tag fusion protein (human, UniProt P46059 391-571); assay: phage ELISA, OD on hPEPT1 over OD on BSA
T3 construct: purified under denaturing conditions; also called recombinant hPEPT1; not shown: poly-histidine tag (pET vector) at the NH2-terminal end
T3 sequence: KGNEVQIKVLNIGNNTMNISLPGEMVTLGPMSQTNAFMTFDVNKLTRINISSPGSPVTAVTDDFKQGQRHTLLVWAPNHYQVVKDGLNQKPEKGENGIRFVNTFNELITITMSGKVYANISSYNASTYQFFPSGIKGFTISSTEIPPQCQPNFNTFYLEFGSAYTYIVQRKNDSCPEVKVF
Method: as §1

[8] = molecular target: T3, hPEPT1 receptor domain (human PEPT1, …); assay: phage ELISA, plate coated with hPEPT1 domain

B1: HAX9 (peptide)
peptide: SREEANWDGYKREMSHRSRFWDATHLSRPRRPANSGDPNAETVESCLAKPHTENSFTNVWKDDKTLDRYANYEGCLWNATGVVVCTGDETQCYGTWVPIGLAIPENEGGGSEGGGSEGGGSEGGGTKPPEYGDTPIPGYTYINPLDGTYPPGTEQNPANPNPSLEESQPLNTFMFQNNRFRNRQGALTVYTGTVTQGTDPVKTYYQYTPVSSKAMYDAYWNGKFRDCAFHSGFNEDPFVCEYQGQSSDLPQPPVNAGGGSGGGSGGGSEGGGSEGGGSEGGGSEGGGSGGGSGSGDFDYEKMANANKGAMTENADENALQSDAKGKLDSVATDYGAAIDGFIGDVSGLANGNGATGDFAGSNSQMAQVGDGDNSPLMNNFRQYLPSLPQSVECRPFVFSAGKPYEFSIDCDKINLFRGVFAFLLYVATFMYVFSTFANILRNKES
notes: Assayed as M13 phage clone displaying the insert
HPT/BSA [1]: 5 ratio
OD [2]: 0.382 OD

B2: HAX42 (peptide)
peptide: SDHALGTNLRSDNAKEPGDYNCCGNGNSTGRKVFNRRRPSAIPTAETVESCLAKPHTENSFTNVWKDDKTLDRYANYEGCLWNATGVVVCTGDETQCYGTWVPIGLAIPENEGGGSEGGGSEGGGSEGGGTKPPEYGDTPIPGYTYINPLDGTYPPGTEQNPANPNPSLEESQPLNTFMFQNNRFRNRQGALTVYTGTVTQGTDPVKTYYQYTPVSSKAMYDAYWNGKFRDCAFHSGFNEDPFVCEYQGQSSDLPQPPVNAGGGSGGGSGGGSEGGGSEGGGSEGGGSEGGGSGGGSGSGDFDYEKMANANKGAMTENADENALQSDAKGKLDSVATDYGAAIDGFIGDVSGLANGNGATGDFAGSNSQMAQVGDGDNSPLMNNFRQYLPSLPQSVECRPFVFSAGKPYEFSIDCDKINLFRGVFAFLLYVATFMYVFSTFANILRNKES
notes: as for B1
HPT/BSA [1]: 5 ratio
OD [2]: 0.32 OD

B3: DCX8 (peptide)
peptide: RYKHDIGCDAGVDKKSSSVRGGCGAHSSPPRAGRGPRGTMVSRLAETVESCLAKPHTENSFTNVWKDDKTLDRYANYEGCLWNATGVVVCTGDETQCYGTWVPIGLAIPENEGGGSEGGGSEGGGSEGGGTKPPEYGDTPIPGYTYINPLDGTYPPGTEQNPANPNPSLEESQPLNTFMFQNNRFRNRQGALTVYTGTVTQGTDPVKTYYQYTPVSSKAMYDAYWNGKFRDCAFHSGFNEDPFVCEYQGQSSDLPQPPVNAGGGSGGGSGGGSEGGGSEGGGSEGGGSEGGGSGGGSGSGDFDYEKMANANKGAMTENADENALQSDAKGKLDSVATDYGAAIDGFIGDVSGLANGNGATGDFAGSNSQMAQVGDGDNSPLMNNFRQYLPSLPQSVECRPFVFSAGKPYEFSIDCDKINLFRGVFAFLLYVATFMYVFSTFANILRNKES
notes: as for B1
D2H/BSA [3]: 3 ratio
OD [4]: 0.163 OD

B4: DAX23 (peptide)
peptide: REWRFAGPPLDLWAGPSLPSFNASSHPRALRTYWSQRPRAETVESCLAKPHTENSFTNVWKDDKTLDRYANYEGCLWNATGVVVCTGDETQCYGTWVPIGLAIPENEGGGSEGGGSEGGGSEGGGTKPPEYGDTPIPGYTYINPLDGTYPPGTEQNPANPNPSLEESQPLNTFMFQNNRFRNRQGALTVYTGTVTQGTDPVKTYYQYTPVSSKAMYDAYWNGKFRDCAFHSGFNEDPFVCEYQGQSSDLPQPPVNAGGGSGGGSGGGSEGGGSEGGGSEGGGSEGGGSGGGSGSGDFDYEKMANANKGAMTENADENALQSDAKGKLDSVATDYGAAIDGFIGDVSGLANGNGATGDFAGSNSQMAQVGDGDNSPLMNNFRQYLPSLPQSVECRPFVFSAGKPYEFSIDCDKINLFRGVFAFLLYVATFMYVFSTFANILRNKES
notes: as for B1
D2H/BSA [5]: 5 ratio
OD [6]: 0.698 OD

B5: P90 (peptide)
peptide: SSADAEKCAGSLLWWGRQNNSGCGSPTKKHLKHRNRSQTSSSSHAETVESCLAKPHTENSFTNVWKDDKTLDRYANYEGCLWNATGVVVCTGDETQCYGTWVPIGLAIPENEGGGSEGGGSEGGGSEGGGTKPPEYGDTPIPGYTYINPLDGTYPPGTEQNPANPNPSLEESQPLNTFMFQNNRFRNRQGALTVYTGTVTQGTDPVKTYYQYTPVSSKAMYDAYWNGKFRDCAFHSGFNEDPFVCEYQGQSSDLPQPPVNAGGGSGGGSGGGSEGGGSEGGGSEGGGSEGGGSGGGSGSGDFDYEKMANANKGAMTENADENALQSDAKGKLDSVATDYGAAIDGFIGDVSGLANGNGATGDFAGSNSQMAQVGDGDNSPLMNNFRQYLPSLPQSVECRPFVFSAGKPYEFSIDCDKINLFRGVFAFLLYVATFMYVFSTFANILRNKES
notes: as for B1
PEPT1/BSA [7]: 9 ratio
OD [8]: 1.12 OD

B6: DAB10 (peptide)
peptide: SKSGEGGDSSRGETGWARVRSHAMTAGRFRWYNQLPSDRAETVESCLAKPHTENSFTNVWKDDKTLDRYANYEGCLWNATGVVVCTGDETQCYGTWVPIGLAIPENEGGGSEGGGSEGGGSEGGGTKPPEYGDTPIPGYTYINPLDGTYPPGTEQNPANPNPSLEESQPLNTFMFQNNRFRNRQGALTVYTGTVTQGTDPVKTYYQYTPVSSKAMYDAYWNGKFRDCAFHSGFNEDPFVCEYQGQSSDLPQPPVNAGGGSGGGSGGGSEGGGSEGGGSEGGGSEGGGSGGGSGSGDFDYEKMANANKGAMTENADENALQSDAKGKLDSVATDYGAAIDGFIGDVSGLANGNGATGDFAGSNSQMAQVGDGDNSPLMNNFRQYLPSLPQSVECRPFVFSAGKPYEFSIDCDKINLFRGVFAFLLYVATFMYVFSTFANILRNKES
notes: as for B1
D2H/BSA [5]: 4 ratio
OD [6]: 0.644 OD

B7: HAX40 (peptide)
peptide: REFAERRLWGCDDLSWRLDAEGCGPTPSNRAVKHRKPRPRSPALAETVESCLAKPHTENSFTNVWKDDKTLDRYANYEGCLWNATGVVVCTGDETQCYGTWVPIGLAIPENEGGGSEGGGSEGGGSEGGGTKPPEYGDTPIPGYTYINPLDGTYPPGTEQNPANPNPSLEESQPLNTFMFQNNRFRNRQGALTVYTGTVTQGTDPVKTYYQYTPVSSKAMYDAYWNGKFRDCAFHSGFNEDPFVCEYQGQSSDLPQPPVNAGGGSGGGSGGGSEGGGSEGGGSEGGGSEGGGSGGGSGSGDFDYEKMANANKGAMTENADENALQSDAKGKLDSVATDYGAAIDGFIGDVSGLANGNGATGDFAGSNSQMAQVGDGDNSPLMNNFRQYLPSLPQSVECRPFVFSAGKPYEFSIDCDKINLFRGVFAFLLYVATFMYVFSTFANILRNKES
notes: Assayed as M13 phage clone displaying the insert; also called H44
HPT/BSA [1]: 15 ratio
OD [2]: 0.991 OD

B8: 5PAX5 (peptide)
peptide: RGSTGTAGGERSGVLNLHTRDNASGSGFKPWYPSNRGHKAETVESCLAKPHTENSFTNVWKDDKTLDRYANYEGCLWNATGVVVCTGDETQCYGTWVPIGLAIPENEGGGSEGGGSEGGGSEGGGTKPPEYGDTPIPGYTYINPLDGTYPPGTEQNPANPNPSLEESQPLNTFMFQNNRFRNRQGALTVYTGTVTQGTDPVKTYYQYTPVSSKAMYDAYWNGKFRDCAFHSGFNEDPFVCEYQGQSSDLPQPPVNAGGGSGGGSGGGSEGGGSEGGGSEGGGSEGGGSGGGSGSGDFDYEKMANANKGAMTENADENALQSDAKGKLDSVATDYGAAIDGFIGDVSGLANGNGATGDFAGSNSQMAQVGDGDNSPLMNNFRQYLPSLPQSVECRPFVFSAGKPYEFSIDCDKINLFRGVFAFLLYVATFMYVFSTFANILRNKES
notes: as for B1
PEPT1/BSA [7]: 4 ratio
OD [8]: 0.15 OD
